Assay results from article PMC2172667.

Legend:
[1] = target: GST-EPLIN-α (recombinant full-length EPLIN-α GST-fusion protein) (UniProt Q9UHB6); assay: pull-down
[2] = target: F-actin (UniProt P68135); assay: co-sedimentation

his-EPLIN-α, sequence (Q9UHB6 161-759): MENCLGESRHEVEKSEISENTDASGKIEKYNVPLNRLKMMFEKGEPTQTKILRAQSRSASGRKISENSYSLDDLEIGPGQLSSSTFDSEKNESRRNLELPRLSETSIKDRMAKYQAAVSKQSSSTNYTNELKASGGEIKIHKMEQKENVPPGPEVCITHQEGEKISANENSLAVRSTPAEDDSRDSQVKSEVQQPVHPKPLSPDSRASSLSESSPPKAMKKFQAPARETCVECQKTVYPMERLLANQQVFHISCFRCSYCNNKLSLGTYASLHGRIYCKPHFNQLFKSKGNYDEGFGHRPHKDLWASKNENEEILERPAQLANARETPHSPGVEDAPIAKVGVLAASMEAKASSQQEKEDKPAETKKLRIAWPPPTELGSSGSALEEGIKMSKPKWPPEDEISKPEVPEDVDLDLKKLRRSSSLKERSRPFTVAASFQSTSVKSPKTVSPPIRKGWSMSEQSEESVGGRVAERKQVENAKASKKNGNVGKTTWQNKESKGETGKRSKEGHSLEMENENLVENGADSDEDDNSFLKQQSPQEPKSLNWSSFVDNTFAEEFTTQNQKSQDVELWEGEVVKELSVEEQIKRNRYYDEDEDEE
GST-EPLIN-α (recombinant full-length EPLIN-α GST-fusion protein), sequence (Q9UHB6 161-759): as above

Row | Substance | percent of actin monomers pelleted [1] | Kd [2] | stoichiometry N (actin molecules per his-EPLIN-α) [2]
1 | G-actin (from UniProt P68135 1-377) (natural protein) | 10% | – | –
2 | his-EPLIN-α (from UniProt Q9UHB6-2 1-599) (natural protein) | – | 100 nM | 2
